According to paper PMC6262872, “DARPins recognize mTFP1 as novel reagents for in vitro and in vivo protein manipulations” (Biology Open, 2018):

Biological target: T1, monomeric teal fluorescent protein 1 (mTFP1), N-terminally hexa-His-SBP-tagged
T1 construct: mTFP1, engineered monomeric teal fluorescent protein (Ai et al., 2006); PDB 2HQK is the cited mTFP1 structure; also called SBP-tagged mTFP1; source: E. coli BL21(DE3), purified (Ni-NTA)
Test: fluorescence polarisation; fluorescence anisotropy; constant 15 nM mTFP1 titrated with a dilution series of DARPin; non-linear fit
Conditions: both partners purified

B1: DARPin 1238_G01 (N-terminal His8, C-terminal FLAG) (designed binder)
chain: GSDLGKKLLEAARAGQDDEVRILMANGADVNAEDWMGATPLHLAAQSGHLEIVEVLLKTGADVNAHDAFGWTPLHLAASQGHLEIVEVLLKAGADVNATDMVGRTPLHLAARRGHLEIVEVLLKHGADVNAQDKFGKTPFDLAIDNGNEDIAEVLQKAAKLN
modifications: N-terminal MRGS-His8 and C-terminal FLAG tags left out; the GP cloning residues of the crystal construct are also left out
Kd: ~88 nM
